The text below walks through data of the supplement of paper PMC7877785.

± gives the uncertainty stated by the source.

A short description of the data set: self-splicing fitness, log relative to wild type (ln ratio); higher = more splicing; Tetrahymena group I intron in knt gene, E. coli kanamycin selection, DiMSum; sequences stand for … in CUCUCU…GGAGGGAAAAGUUAUCAGGCAUGCACCUGGUAGCUAGUCUUUAAACCAAUAGAUUGCAUCGGUUUAAAAGGCAAGACCGUCAAAUUGCGGGAAAGGGGUCAACAGCCGUUCAGUACCAAGUCUCAGGGGAAACUUUGAGAUGGCCUUGCAAAGGGUAUGGUAAUAAGCUGACGGACAUGGUCCUAACCACGCAGCCAAGUCCUAAGUCAACAGAUCUUCUGUUGAUAUGGAUGCAGUUCACAGACUAAAUGUCGGUCGGGGAAGAUGUAUUCUUCUCAUAAGAUAUAGUCGGACCUCUCCUUAAUGGGAGCUAGCGGAUGAAGUGAUGCAACACUGGAGCCGCUGGGAACUAAUUUGUAUGCGAAAGUAUAUUGAUUAGUUUUGGAGUACUCGUGGUCG
The procedure, abridged: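 DiMSum derived fitness as the error-weighted combination of fold changes across replicates, kanamycin versus no kanamycin, normalised to wild type. E. coli BL21(DE3) held the library, which randomised all eight P1ex-region intron nucleotides within the knt kanamycin-resistance gene on pET-22b(+). Six replicate transformations grew overnight at 37°C or 30°C on LB agar with or without 25 μg/mL kanamycin, also containing 100 μg/mL carbenicillin, 50 μM IPTG and 0.2% rhamnose, and pooled colonies were amplicon-sequenced on an Illumina HiSeq 2500.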

For the sequence CGUCAGCAAUAUUACGUUUA, the “self-splicing fitness (ln)” value (30 °C) is -2.93 ± 0.18 and the “self-splicing fitness (ln)” value (37 °C) was -1.66 ± 0.16.

In the case of CGUCAGCAAUAUUACGUUUG, the “self-splicing fitness (ln)” value by setting is: (30 °C) -1.14 ± 0.062; (37 °C) -0.102 ± 0.079. Take CGUGAGCAAUAUUACGAACC: the “self-splicing fitness (ln)” value was -1.44 ± 0.18 (30 °C) and -0.0387 ± 0.24 (37 °C). For CGUGAGCAAUAUUACGAACU, in that order: -2.23 ± 0.3 and -0.177 ± 0.29. In the case of CGUGAGCAAUAUUACGAAGA, the “self-splicing fitness (ln)” value (30 °C) was -1.53 ± 0.37.

Regarding CGUGAGCAAUAUUACGAGGG, the “self-splicing fitness (ln)” value is, setting by setting: (30 °C) -3.77 ± 0.3; (37 °C) -2.36 ± 0.25. For CGUGAGCAAUAUUACGCAGU, in that order: -3.4 ± 0.41 and -2.03 ± 0.44. Turning to CGUGAGCAAUAUUACGCGAG, the “self-splicing fitness (ln)” value (30 °C) was -1.12 ± 0.21. Turning to CGUGAGCAAUAUUACGGAGG, the “self-splicing fitness (ln)” value (30 °C) is -2.69 ± 0.17 and the “self-splicing fitness (ln)” value (37 °C) is -0.9 ± 0.14.

With CGUGAGCAAUAUUACGGGAU, the “self-splicing fitness (ln)” value by setting is: (30 °C) -3.49 ± 0.22; (37 °C) -2.24 ± 0.21. For CGUGAGCAAUAUUACGGGUG, in that order: -0.878 ± 0.067 and -0.658 ± 0.078. For the sequence CGUGAGCAAUAUUACGGUCC, the “self-splicing fitness (ln)” value (30 °C) is -3.39 ± 0.24 and the “self-splicing fitness (ln)” value (37 °C) was -1.69 ± 0.24. For CGUGAGCAAUAUUACGGUGG the same measures were -2.03 ± 0.082 and -1.35 ± 0.1. For CGUGAGCAAUAUUACGGUUG, in that order: -1.49 ± 0.07 and -0.412 ± 0.094. For CGUGAGCAAUAUUACGUGGA, in that order: -3.06 ± 0.15 and -2.11 ± 0.14. CGUUAGCAAUAUUACGACAU: the “self-splicing fitness (ln)” value reads like this: (30 °C) -1.529 ± 0.015; (37 °C) -0.592 ± 0.033. Turning to CGUUAGCAAUAUUACGCGCU, the “self-splicing fitness (ln)” value was -1.9 ± 0.2 (30 °C) and -1.73 ± 0.17 (37 °C).

As for CGUUAGCAAUAUUACGCGUC, for the setting “30 °C”, the “self-splicing fitness (ln)” value was -3.47 ± 0.23. On the same count and under the same terms, with CGUUAGCAAUAUUACGGCUA the figure was -2.27 ± 0.37.

In the case of CGUUAGCAAUAUUACGGCUU, the “self-splicing fitness (ln)” value (30 °C) was -0.864 ± 0.16 and the “self-splicing fitness (ln)” value (37 °C) is -2.39 ± 0.31.

Turning to CGUUAGCAAUAUUACGGGCA, the “self-splicing fitness (ln)” value (30 °C) is -0.756 ± 0.15 and the “self-splicing fitness (ln)” value (37 °C) is -1.2 ± 0.11. For the sequence CGUUAGCAAUAUUACGGGUU, the “self-splicing fitness (ln)” value reads like this: (30 °C) -3.4 ± 0.24; (37 °C) -2.42 ± 0.25. For CGUUAGCAAUAUUACGGUGA the same measures were -2.76 ± 0.21 and -0.883 ± 0.16. For CGUUAGCAAUAUUACGUCUA, in that order: -3 ± 0.28 and -2.33 ± 0.24.

For CGUUAGCAAUAUUACGUGGU, the “self-splicing fitness (ln)” value by setting is: (30 °C) -4.09 ± 0.26; (37 °C) -2.6 ± 0.28.

Turning to CGUUAGCAAUAUUACGUGUU, the “self-splicing fitness (ln)” value was -4.58 ± 0.22 (30 °C) and -3.04 ± 0.17 (37 °C).

Take CUAAAGCAAUAUUACGAAUC: the “self-splicing fitness (ln)” value (30 °C) is -4.03 ± 0.14 and the “self-splicing fitness (ln)” value (37 °C) was -2.46 ± 0.16.

Regarding CUAAAGCAAUAUUACGACAU, the “self-splicing fitness (ln)” value by setting is: (30 °C) -3.986 ± 0.024; (37 °C) -2.72 ± 0.039.

With CUAAAGCAAUAUUACGACCU, the “self-splicing fitness (ln)” value was -4.28 ± 0.46 (30 °C) and -1.97 ± 0.22 (37 °C). In the case of CUAAAGCAAUAUUACGAGAU, the “self-splicing fitness (ln)” value (30 °C) was -2.72 ± 0.16 and the “self-splicing fitness (ln)” value (37 °C) is -2.05 ± 0.23. For CUAAAGCAAUAUUACGAUCC, in that order: -2.81 ± 0.27 and -1.13 ± 0.36. For CUAAAGCAAUAUUACGAUGA the same measures were -2.57 ± 0.11 and -0.323 ± 0.1. For CUAAAGCAAUAUUACGAUUA the same measures were -2.51 ± 0.092 and -1.19 ± 0.12. Turning to CUAAAGCAAUAUUACGCAUC, the “self-splicing fitness (ln)” value (30 °C) was -4.03 ± 0.35. Consider CUAAAGCAAUAUUACGCCAA, for which the “self-splicing fitness (ln)” value runs as follows: (30 °C) -4.58 ± 0.32; (37 °C) -3.1 ± 0.37. For CUAAAGCAAUAUUACGCCAG, in that order: -0.416 ± 0.13 and 0.13 ± 0.19.

With CUAAAGCAAUAUUACGCGAG, the “self-splicing fitness (ln)” value by setting is: (30 °C) -0.464 ± 0.077; (37 °C) 0.0633 ± 0.11. For CUAAAGCAAUAUUACGCGGG, in that order: -2.27 ± 0.13 and -2.03 ± 0.15.

For the sequence CUAAAGCAAUAUUACGCGUA, the “self-splicing fitness (ln)” value is, setting by setting: (30 °C) -3.35 ± 0.18; (37 °C) -2.63 ± 0.21.

CUAAAGCAAUAUUACGCUAA: the “self-splicing fitness (ln)” value (30 °C) was -5.16 ± 0.45. As to CUAAAGCAAUAUUACGGCUA, the “self-splicing fitness (ln)” value was -3.85 ± 0.21 (30 °C) and -2.34 ± 0.25 (37 °C).

In the case of CUAAAGCAAUAUUACGGGCU, the “self-splicing fitness (ln)” value is, setting by setting: (30 °C) -4.47 ± 0.18; (37 °C) -2.59 ± 0.16.

For the sequence CUAAAGCAAUAUUACGGGGA, the “self-splicing fitness (ln)” value (30 °C) was -3.4 ± 0.16 and the “self-splicing fitness (ln)” value (37 °C) is -1.96 ± 0.16. With CUAAAGCAAUAUUACGUAGC, the “self-splicing fitness (ln)” value was -3.73 ± 0.2 (30 °C) and -2.94 ± 0.37 (37 °C). Turning to CUACAGCAAUAUUACGAACA, the “self-splicing fitness (ln)” value is, setting by setting: (30 °C) -2.94 ± 0.18; (37 °C) -2.49 ± 0.21. Consider CUACAGCAAUAUUACGAAUG, for which the “self-splicing fitness (ln)” value (30 °C) is -0.558 ± 0.059 and the “self-splicing fitness (ln)” value (37 °C) was -0.464 ± 0.075.

As to CUACAGCAAUAUUACGACAA, the “self-splicing fitness (ln)” value is -2.42 ± 0.2 (30 °C) and -2.19 ± 0.21 (37 °C).

For CUACAGCAAUAUUACGACUG, the “self-splicing fitness (ln)” value is -1.86 ± 0.087 (30 °C) and -0.44 ± 0.1 (37 °C).

Consider CUACAGCAAUAUUACGAGAG, for which the “self-splicing fitness (ln)” value reads like this: (30 °C) -2.79 ± 0.16; (37 °C) -2.21 ± 0.18. In the case of CUACAGCAAUAUUACGAUAC, the “self-splicing fitness (ln)” value reads like this: (30 °C) -3.74 ± 0.19; (37 °C) -2.58 ± 0.18. For CUACAGCAAUAUUACGAUUA, in that order: -2.88 ± 0.16 and -1.5 ± 0.15. Take CUACAGCAAUAUUACGCUCA: the “self-splicing fitness (ln)” value is, setting by setting: (30 °C) -4.47 ± 0.42; (37 °C) -2.6 ± 0.39.

On to CUACAGCAAUAUUACGCUGG, for which the “self-splicing fitness (ln)” value runs as follows: (30 °C) -3.11 ± 0.097; (37 °C) -2.66 ± 0.15.

Take CUACAGCAAUAUUACGGAAA: the “self-splicing fitness (ln)” value by setting is: (30 °C) -4.58 ± 0.46; (37 °C) -2.9 ± 0.33. For CUACAGCAAUAUUACGGAGC, in that order: -3.83 ± 0.14 and -3.14 ± 0.17. For CUACAGCAAUAUUACGGAGU, in that order: -3.21 ± 0.13 and -2.89 ± 0.16. With CUACAGCAAUAUUACGGCAA, the “self-splicing fitness (ln)” value (30 °C) is -3.24 ± 0.24 and the “self-splicing fitness (ln)” value (37 °C) is -2.79 ± 0.23. For CUACAGCAAUAUUACGGCCG the same measures were -0.378 ± 0.091 and -0.0396 ± 0.11. For CUACAGCAAUAUUACGGCCU, in that order: -4.36 ± 0.33 and -1.68 ± 0.21. As for CUACAGCAAUAUUACGGUAU, the “self-splicing fitness (ln)” value reads like this: (30 °C) -2.43 ± 0.08; (37 °C) -1.31 ± 0.096. For CUACAGCAAUAUUACGGUGA the same measures were -1.61 ± 0.081 and -0.453 ± 0.092. For the sequence CUACAGCAAUAUUACGUAAC, the “self-splicing fitness (ln)” value was -3.34 ± 0.16 (30 °C) and -2.03 ± 0.21 (37 °C).

Turning to CUACAGCAAUAUUACGUAGU, the “self-splicing fitness (ln)” value is -3.43 ± 0.14 (30 °C) and -2.49 ± 0.2 (37 °C). As to CUACAGCAAUAUUACGUAUG, the “self-splicing fitness (ln)” value reads like this: (30 °C) -2.21 ± 0.09; (37 °C) -1.35 ± 0.091. For CUACAGCAAUAUUACGUGAU, in that order: -2.01 ± 0.063 and -1.18 ± 0.085. For the sequence CUAGAGCAAUAUUACGAACG, the “self-splicing fitness (ln)” value runs as follows: (30 °C) 0.208 ± 0.12; (37 °C) 0.617 ± 0.14. Take CUAGAGCAAUAUUACGACUA: the “self-splicing fitness (ln)” value runs as follows: (30 °C) -1.97 ± 0.12; (37 °C) -1.26 ± 0.15. For CUAGAGCAAUAUUACGCCCA, the “self-splicing fitness (ln)” value (30 °C) is -3.13 ± 0.33. Consider CUAGAGCAAUAUUACGCCGA, for which the “self-splicing fitness (ln)” value (37 °C) is -2.06 ± 0.43. With CUAGAGCAAUAUUACGCGCG, the “self-splicing fitness (ln)” value runs as follows: (30 °C) -0.479 ± 0.11; (37 °C) 0.603 ± 0.16. As for CUAGAGCAAUAUUACGGAAC, under “30 °C”, the “self-splicing fitness (ln)” value was -1.38 ± 0.17. As for CUAGAGCAAUAUUACGGAGU, the “self-splicing fitness (ln)” value (30 °C) is -4.15 ± 0.33 and the “self-splicing fitness (ln)” value (37 °C) was -2.87 ± 0.43. Take CUAGAGCAAUAUUACGGAUU: the “self-splicing fitness (ln)” value (37 °C) is -3.03 ± 0.43. In the case of CUAGAGCAAUAUUACGGGUA, the “self-splicing fitness (ln)” value is, setting by setting: (30 °C) -3.53 ± 0.36; (37 °C) -2.3 ± 0.36. On to CUAGAGCAAUAUUACGGUAG, for which the “self-splicing fitness (ln)” value is -0.666 ± 0.12 (30 °C) and -0.0273 ± 0.15 (37 °C).

Turning to CUAGAGCAAUAUUACGUAGG, the “self-splicing fitness (ln)” value (30 °C) is -1.04 ± 0.1 and the “self-splicing fitness (ln)” value (37 °C) is 1 ± 0.14. As for CUAGAGCAAUAUUACGUGAU, the “self-splicing fitness (ln)” value runs as follows: (30 °C) -1.85 ± 0.09; (37 °C) -0.696 ± 0.1. With CUAGAGCAAUAUUACGUGUG, the “self-splicing fitness (ln)” value (30 °C) was -0.455 ± 0.055 and the “self-splicing fitness (ln)” value (37 °C) came to 0.162 ± 0.08.
